From the supplement of paper PMC9732359
± gives the uncertainty stated by the source.

Experiment: protein stability index of a GFP-peptide fusion (yeast GPS) (PSI 1-4); higher = more stable; sorted into four equal gates, so the index is relative within each strain
In short: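 Tiled yeast protein peptides of 17 residues were each joined downstream of GFP, on plasmids that also express Cherry. The pooled library was maintained in yeast, and mid-log cultures in leucine-free medium were sorted into four equal gates on the GFP/Cherry ratio. Plasmids from every gate were amplified by PCR and sequenced on Illumina, with barcodes linking reads to strains. The protein stability index of a peptide is its gate-number-weighted read frequency summed over the gates.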

Work on GAFDQLKQNAIRARIPF [SRP54] yielded a protein stability index (doa10∆) of 2.69 ± 0.063, a protein stability index (pdr5∆) of 2.89 ± 0.06 and a protein stability index (san1∆) of 2.9 ± 0.057. The protein stability index (ubr1∆) was 3.03 ± 0.07.
Work on GAKGSTLIVVPFNQGSK [FAS2] yielded a protein stability index (doa10∆) of 2.1 ± 0.095, a protein stability index (pdr5∆) of 2.48 ± 0.088 and a protein stability index (san1∆) of 2.18 ± 0.14. For the same sequence, the protein stability index (ubr1∆) was 1.85 ± 0.073.
For GAKNIEITVVKPDSDIV [PRE6], the protein stability index (doa10∆) was 2.54 ± 0.047, the protein stability index (pdr5∆) was 2.46 ± 0.041 and the protein stability index (san1∆) was 2.57 ± 0.052. For the same sequence, the protein stability index (ubr1∆) was 2.67 ± 0.059.
GALHFVQQSEKLRNEVE [YIL149C/MLP2] showed a protein stability index (doa10∆) of 3.17 ± 0.14, a protein stability index (pdr5∆) of 3.16 ± 0.22 and a protein stability index (ubr1∆) of 3.16 ± 0.12.
With GALQESVEAYLVSLFED [HHT1] the protein stability index (doa10∆) was 1.42 ± 0.095, the protein stability index (pdr5∆) was 2.62 ± 0.12 and the protein stability index (san1∆) was 2.29 ± 0.12. For the same sequence, the protein stability index (ubr1∆) was 2.05 ± 0.08.
For GAMGLLSSAGAKSTVET [RIP1], the protein stability index (doa10∆) was 2.01 ± 0.12, the protein stability index (pdr5∆) was 2.46 ± 0.11 and the protein stability index (san1∆) was 2.14 ± 0.18. It also gave a protein stability index (ubr1∆) of 2.35 ± 0.09.
Sequence GANPRVLSTFTAEFGKI [RPN10] has a protein stability index (doa10∆) of 2.14 ± 0.11, a protein stability index (pdr5∆) of 2.08 ± 0.1 and a protein stability index (san1∆) of 2.12 ± 0.2. The protein stability index (ubr1∆) was 2.18 ± 0.073.
With GAPGANARMPGMPNMPG [SRP54] the protein stability index (doa10∆) was 3.15 ± 0.083, the protein stability index (pdr5∆) was 3.2 ± 0.28 and the protein stability index (san1∆) was 2.92 ± 0.12. It also gave a protein stability index (ubr1∆) of 2.9 ± 0.11.
Sequence GAQIVSKQIFTHPKDTF [ARP9] has a protein stability index (doa10∆) of 2.23 ± 0.069, a protein stability index (pdr5∆) of 1.51 ± 0.051 and a protein stability index (san1∆) of 2.04 ± 0.067. For the same sequence, the protein stability index (ubr1∆) was 1.68 ± 0.033.
For GARVFGALKGASDGGLY [RPL5], the protein stability index (pdr5∆) was 3.34 ± 0.17 and the protein stability index (ubr1∆) was 3.11 ± 0.19.
With GASGVDDFQNFFDPKPF [SWI1] the protein stability index (doa10∆) was 2.65 ± 0.065, the protein stability index (pdr5∆) was 2.68 ± 0.064 and the protein stability index (san1∆) was 2.92 ± 0.092. The protein stability index (ubr1∆) was 3.11 ± 0.046.
In the case of GASIIQVIFEIFEISLQ [YML103C/NUP188], the protein stability index (doa10∆) is reported as 1.53 ± 0.046, the protein stability index (pdr5∆) is reported as 1.82 ± 0.044 and the protein stability index (san1∆) is reported as 2.1 ± 0.065. It also gave a protein stability index (ubr1∆) of 2.06 ± 0.043.
GASNGDDSNGGNGEGLG [BRN1] showed a protein stability index (doa10∆) of 3.42 ± 0.14, a protein stability index (pdr5∆) of 2.83 ± 0.23 and a protein stability index (san1∆) of 3.68 ± 0.16. It also gave a protein stability index (ubr1∆) of 3.19 ± 0.084.
In the case of GATSKPAFSFGAKPEEK [YJL041W/NSP1], the protein stability index (doa10∆) is reported as 3.05 ± 0.098, the protein stability index (pdr5∆) is reported as 3.4 ± 0.092 and the protein stability index (san1∆) is reported as 3.31 ± 0.074. The protein stability index (ubr1∆) was 3.11 ± 0.073.
Work on GATVFVNHLLLFAREIA [DPB4] yielded a protein stability index (doa10∆) of 1.94 ± 0.046, a protein stability index (pdr5∆) of 1.9 ± 0.04 and a protein stability index (san1∆) of 1.41 ± 0.087. The protein stability index (ubr1∆) was 1.72 ± 0.039.
For GCGNTQPTIRKDGLKLV [RPO21], the protein stability index (doa10∆) was 2.42 ± 0.084, the protein stability index (pdr5∆) was 2.11 ± 0.056 and the protein stability index (san1∆) was 2.3 ± 0.17. It also gave a protein stability index (ubr1∆) of 2.41 ± 0.045.
Sequence GCIPGNRKRIVTLRKSL [RPL3] has a protein stability index (doa10∆) of 1.38 ± 0.069, a protein stability index (pdr5∆) of 1.5 ± 0.083 and a protein stability index (san1∆) of 1.6 ± 0.2. For the same sequence, the protein stability index (ubr1∆) was 1.26 ± 0.061.
For GCLSVLYQSKGRYMEAL [SRP68], the protein stability index (doa10∆) was 2.83 ± 0.13, the protein stability index (pdr5∆) was 3.04 ± 0.18 and the protein stability index (san1∆) was 2.76 ± 0.21.
GCVDIDDALHAKKLPNG [DIS3] showed a protein stability index (doa10∆) of 3.26 ± 0.059, a protein stability index (pdr5∆) of 3.23 ± 0.051 and a protein stability index (san1∆) of 3.14 ± 0.04. For the same sequence, the protein stability index (ubr1∆) was 3.14 ± 0.037.
Sequence GDHNKLRSTIANLLQIN [YML103C/NUP188] has a protein stability index (doa10∆) of 2.27 ± 0.054, a protein stability index (pdr5∆) of 2.35 ± 0.069 and a protein stability index (san1∆) of 1.45 ± 0.13. The protein stability index (ubr1∆) was 1.87 ± 0.035.
With GDIKPEFSPRLHNIWSN [YML103C/NUP188] the protein stability index (doa10∆) was 3.22 ± 0.14, the protein stability index (pdr5∆) was 2.98 ± 0.091 and the protein stability index (san1∆) was 3.32 ± 0.11. The protein stability index (ubr1∆) was 3.51 ± 0.11.
GDIKVLDSNFNLQREID [RPN14] showed a protein stability index (doa10∆) of 2.96 ± 0.12, a protein stability index (pdr5∆) of 3.11 ± 0.091 and a protein stability index (san1∆) of 2.93 ± 0.085. The protein stability index (ubr1∆) was 3.26 ± 0.082.
With GDVVLAAAYSHELPRYG [RPL5] the protein stability index (doa10∆) was 2.83 ± 0.073, the protein stability index (pdr5∆) was 2.95 ± 0.068 and the protein stability index (san1∆) was 2.99 ± 0.061. It also gave a protein stability index (ubr1∆) of 2.97 ± 0.074.
In the case of GEGERFTVDKKIAERSL [SKP1], the protein stability index (doa10∆) is reported as 3.44 ± 0.12, the protein stability index (pdr5∆) is reported as 3.38 ± 0.12 and the protein stability index (san1∆) is reported as 3.36 ± 0.12. For the same sequence, the protein stability index (ubr1∆) was 3.37 ± 0.24.
In the case of GEIIDISAFTQFLRLIF [ARP9], the protein stability index (doa10∆) is reported as 2.45 ± 0.08, the protein stability index (pdr5∆) is reported as 2.23 ± 0.075 and the protein stability index (san1∆) is reported as 2.59 ± 0.11. It also gave a protein stability index (ubr1∆) of 2.94 ± 0.065.
Sequence GELEQAQAWINLGEYYA [RPN7] has a protein stability index (doa10∆) of 3.58 ± 0.28, a protein stability index (pdr5∆) of 3.03 ± 0.098 and a protein stability index (san1∆) of 3.33 ± 0.1. For the same sequence, the protein stability index (ubr1∆) was 3.26 ± 0.057.
